Where two headings read alike, the source gives them in different places.
Tests used:
[1] = target: T1, Tn-glycosylated LAMP1 on COSMC knock-out cells (human, UniProt P11279 29-417, Truncated O-glycans (Tn, GalNAc alpha1-O-Ser/Thr), because the COSMC chaperone is knocked out); assay: cell-based or functional assay
T1 sequence (looked up): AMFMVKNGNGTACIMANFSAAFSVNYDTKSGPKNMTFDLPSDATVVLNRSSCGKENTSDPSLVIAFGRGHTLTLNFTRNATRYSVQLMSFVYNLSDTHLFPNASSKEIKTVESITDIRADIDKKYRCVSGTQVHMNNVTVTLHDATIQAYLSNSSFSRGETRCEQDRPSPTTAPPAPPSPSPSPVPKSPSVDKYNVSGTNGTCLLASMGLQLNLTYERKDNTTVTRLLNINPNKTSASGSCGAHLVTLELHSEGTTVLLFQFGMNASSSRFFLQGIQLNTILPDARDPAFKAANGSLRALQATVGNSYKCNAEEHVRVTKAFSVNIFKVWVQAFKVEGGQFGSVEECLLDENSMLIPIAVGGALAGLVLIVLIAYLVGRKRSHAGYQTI

[2] = target: T2, LAMP1 without Tn glycans on wild type cells (human, UniProt P11279 29-417, No Tn antigen (the wild type cells are Tn-negative)); assay: cell-based or functional assay
T2 sequence (looked up): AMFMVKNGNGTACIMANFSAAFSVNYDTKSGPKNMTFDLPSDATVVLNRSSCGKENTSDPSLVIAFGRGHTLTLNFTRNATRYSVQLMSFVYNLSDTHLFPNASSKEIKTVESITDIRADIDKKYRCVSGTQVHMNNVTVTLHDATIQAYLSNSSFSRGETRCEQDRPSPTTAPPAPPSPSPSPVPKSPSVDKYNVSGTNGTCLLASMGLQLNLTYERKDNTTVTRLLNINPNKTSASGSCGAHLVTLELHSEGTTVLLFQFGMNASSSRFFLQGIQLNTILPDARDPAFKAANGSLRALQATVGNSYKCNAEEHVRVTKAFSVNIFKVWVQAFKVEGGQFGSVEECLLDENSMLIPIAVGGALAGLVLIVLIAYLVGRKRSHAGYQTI

[3] = target: T1, Tn-glycosylated LAMP1 on COSMC …; assay: cell-based or functional assay; remark: listed apart in the source
[4] = target: T2, LAMP1 without Tn glycans on wild type …; assay: cell-based or functional assay; remark: listed apart in the source
[5] = target: T1, Tn-glycosylated LAMP1 on COSMC …; assay: cell-based or functional assay; remark: listed apart in the source
[6] = target: T3, LAMP1-Tn peptide Biotin-CEQDRPSPTTAPPAPPSPSP (human, N-terminal biotin; O-linked GalNAc on the serine at position 7 and the threonines at positions 9 and 10); assay: BLI (Octet), LAMP1-GP on biosensor
T3 construct: Synthetic 20-mer glycopeptide made by FMOC synthesis; also called LAMP1 glycopeptide; glycosylated LAMP1 peptide
T3 peptide: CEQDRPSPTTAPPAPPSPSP

[7] = target: T3, LAMP1-Tn peptide …; assay: ELISA on plate-coated LAMP1-GP
Experimental: 96-well Corning high bind ELISA microplates plates were coated with LAMP1 peptides titrated in 0.2 M bicarbonate buffer, pH 9.4 overnight at 4° C. in concentrations ranging from 0.08 μg/ml to 10 μg/ml. BSA was used as a control/measure of background. The plates were then blocked with SuperBlock™ (Thermo Fisher) for 1 hr at room temperature. After plate washing, the humanized variants of 13C3 were incubated on the ELISA plate for 1 hour. All tested variants were expressed and purified using conventional methods. Briefly, Expi-293 cells were transiently transfected with heavy and light chain constructs, antibodies were secreted into supernatant and purified using Protein A agarose beads. The plates were then washed, and then incubated with secondary antibody (1/3000 Goat Anti-mouse IgG (H+L) HRP (Abcam 62-6520)) for 1 hour. The plate was then washed and color was developed with 1-Step™ Ultra TMB (Thermo Fisher) for 2 minutes. Color development was then stopped with 2 N Sulfuric Acid. Absorbance at 450 nm was then measured.

B1: 13C3-CART (other)
chain: DVVMTQTPLSLPVSLGDQASISCRSSQSLVHSNGNTYLHWYLQKPGQSPKLLINKVSNRFSGVPDRFSGSGSGTDFTLKISRVEAEDLGVYFCSQSTHVPRTFGGGTKLEIKGGGGSGGGGSGGGGSEVKLEDSGGGLVQPGGSMKLSCAASGFTFSDAWMDWVRHSPEKGLEWVAELRSKAFNHATYYAESVKGRFTISRDDSKSTVYLQMNSLRAEDTGIYYCTPNWDEGFAYWGQGTLVTVSATTTPAPRPPTPAPTIASQPLSLRPEACRPAAGGAVHTRGLDFACDFWVLVVVGGVLACYSLLVTVAFIIFWVRSKRSRLLHSDYMNMTPRRPGPTRKHYQPYAPPRDFAAYRSRVKFSRSADAPAYQQGQNQLYNELNLGRREEYDVLDKRRGRDPEMGGKPRRKNPQEGLYNELQKDKMAEAYSEIGMKGERRRGKGHDGLYQGLSTATKDTYDALHMQALPPR
Time to kill 50% of cells (KT50), HaCAT COSMC-KO target cells, T cell ratio 10:1 [1]: 7.3 h

B2: 13G2-ADC (GGFG-DX8951) (other)
VH: EVRLEESGGGLVQPGGSMKLSCVASGFTFSDAWMDWVRQSPERGLEWVAELRSKTFNHATYYAESVRGRFTISRDDSKSTVYLQMNSLRAEDTGIYYCSPNWDEGFAYWGQGTLVTVSA
VL: DVVMTQIPLSLCVSLGDQASISCRSSQSLVHNNGNTYLHWYLQKPGQSPKLLINKVSKRFTGVPDRFSGSGSGTDFTLKISRVEAEDLGVYFCSQSTHVPRTFGGGTKLEIK
modifications: MC-GGFG-DX8951 covalently attached to the antibody (maleimide); site not stated; DAR ~5.6
IC50 for cell death, T47D cells [2]: 4.4 nM | IC50 for cell death, T47D COSMC-KO cells [3]: 5.6 nM

B3: GO-13C3 mouse (vc-PAB-MMAE ADC) (other)
VH: EVKLEDSGGGLVQPGGSMKLSCAASGFTFSDAWMDWVRHSPEKGLEWVAELRSKAFNHATYYAESVKGRFTISRDDSKSTVYLQMNSLRAEDTGIYYCTPNWDEGFAYWGQGTLVTVSA
VL: DVVMTQTPLSLPVSLGDQASISCRSSQSLVHSNGNTYLHWYLQKPGQSPKLLINKVSNRFSGVPDRFSGSGSGTDFTLKISRVEAEDLGVYFCSQSTHVPRTFGGGTKLEIK
modifications: Cleavable MMAE with maleimide (vc-PAB-MMAE) covalently linked; site not stated; DAR ~4
IC50 for cell death, T47D cells [4]: > 100 µM | IC50 for cell death, T47D COSMC-KO cells [5]: 4.5 nM

B4: GO-13C3-Human-v1 (vc-PAB-MMAE ADC) (other)
VH: EVQLVESGGGLVQPGGSLRLSCAASGFTFSDAWMDWVRHAPGKGLEWVAELRSKAFNHATYYAESVKGRFTISRDDSKNSVYLQMNSLKTEDTAVYYCTPNWDEGFAYWGQGTLVTVSS
VL: DVVMTQSPLSLPVTLGQPASISCRSSQSLVHSNGNTYLHWYQQRPGQSPRLLINKVSNRFSGVPDRFSGSGSGTDFTLKISRVEAEDVGVYFCSQSTHVPRTFGGGTKVEIK
modifications: Cleavable MMAE with maleimide (vc-PAB-MMAE) covalently linked; site not stated; DAR ~4
IC50 for cell death, T47D cells [4]: > 100 µM | IC50 for cell death, T47D COSMC-KO cells [5]: 5.03 nM

B5: GO-13C3-Human-v2 (vc-PAB-MMAE ADC) (other)
VH: EVQLLESGGGLVQPGGSLRLSCAASGFTFSDAWMDWVRQAPGKGLEWVSELRSKAFNHATYYAESVKGRFTISRDDSKNTLYLQMNSLRAEDTAVYYCTPNWDEGFAYWGQGTLVTVSS
VL: DVVMTQSPLSLPVTLGQPASISCRSSQSLVHSNGNTYLHWYQQRPGQSPRLLINKVSNRFSGVPDRFSGSGSGTDFTLKISRVEAEDVGVYFCSQSTHVPRTFGGGTKVEIK
modifications: Cleavable MMAE with maleimide (vc-PAB-MMAE) covalently linked; site not stated; DAR ~4
IC50 for cell death, T47D cells [4]: > 100 µM | IC50 for cell death, T47D COSMC-KO cells [5]: 5.4 nM

B6: 13G2-CART (other)
chain: DVVMTQIPLSLCVSLGDQASISCRSSQSLVHNNGNTYLHWYLQKPGQSPKLLINKVSKRFTGVPDRFSGSGSGTDFTLKISRVEAEDLGVYFCSQSTHVPRTFGGGTKLEIKGGGGSGGGGSGGGGSEVRLEESGGGLVQPGGSMKLSCVASGFTFSDAWMDWVRQSPERGLEWVAELRSKTFNHATYYAESVRGRFTISRDDSKSTVYLQMNSLRAEDTGIYYCSPNWDEGFAYWGQGTLVTVSATTTPAPRPPTPAPTIASQPLSLRPEACRPAAGGAVHTRGLDFACDFWVLVVVGGVLACYSLLVTVAFIIFWVRSKRSRLLHSDYMNMTPRRPGPTRKHYQPYAPPRDFAAYRSRVKFSRSADAPAYQQGQNQLYNELNLGRREEYDVLDKRRGRDPEMGGKPRRKNPQEGLYNELQKDKMAEAYSEIGMKGERRRGKGHDGLYQGLSTATKDTYDALHMQALPPR
Time to kill 50% of cells (KT50), HaCAT COSMC-KO target cells, T cell ratio 10:1 [1]: 8.75 h

B7: 3C7-ADC (GGFG-DX8951) (other)
VH: EVKLEESGGGLVQPGGSMKVSCGASGFTFSDAWMDWVRQSPEKGLEWVAEMRSKAFNHAIYYAESVKGRFTISRDDSKSRVYLQMNLLRPEDTGIYYCTPNWDEGFAYWGQGTLVTVSA
VL: DVMLTQTPLSLPVSLGDQASISCRSSQSLVHSNGNTYLHWYLQKPGQSPKLLINKVSNRFFGVPDRFSGSGSGTDFTLKISRVEAEDLGVYFCSQSTHVPRTFGGGTKLEIK
modifications: MC-GGFG-DX8951 covalently attached to the antibody (maleimide); site not stated; the DAR could not be calculated
IC50 for cell death, T47D cells [2]: 504 nM | IC50 for cell death, T47D COSMC-KO cells [3]: 4.5 nM

B8: 13C3-ADC (GGFG-DX8951) (other)
VH: EVKLEDSGGGLVQPGGSMKLSCAASGFTFSDAWMDWVRHSPEKGLEWVAELRSKAFNHATYYAESVKGRFTISRDDSKSTVYLQMNSLRAEDTGIYYCTPNWDEGFAYWGQGTLVTVSA
VL: DVVMTQTPLSLPVSLGDQASISCRSSQSLVHSNGNTYLHWYLQKPGQSPKLLINKVSNRFSGVPDRFSGSGSGTDFTLKISRVEAEDLGVYFCSQSTHVPRTFGGGTKLEIK
modifications: MC-GGFG-DX8951 covalently attached to the antibody (maleimide); site not stated; DAR ~3.1
IC50 for cell death, T47D cells [2]: 205 nM | IC50 for cell death, T47D COSMC-KO cells [3]: 5.6 nM

B9: 13C3-HV-23-B/13C3 KV2-A (antibody, V domains shown)
VH: EVQLLESGGGLVQPGGSLRLSCAASGFTFSDAWMDWVRQAPGKGLEWVSELRSKAFNHATYYAESVKGRFTISRDDSKNTLYLQMNSLRAEDTAVYYCTPNWDEGFAYWGQGTLVTVSS
VL: DVVMTQSPLSLPVTLGQPASISCRSSQSLVHSNGNTYLHWYQQRPGQSPRLLINKVSNRFSGVPDRFSGSGSGTDFTLKISRVEAEDVGVYFCSQSTHVPRTFGGGTKVEIK
notes: Humanized 13C3; also called HV23B/KV2A; humanized 13C3 candidate 3
Kd [6]: 0.85 nM | EC50 [7]: 0.0191 µg/mL

B10: 13C3-HV-23-C/13C3 KV2-A (antibody, V domains shown)
VH: EVQLLESGGGLVQPGGSLRLSCAASGFTFSDAWMDWVRQAPGKGLEWVSEIRSSAFNHATYYAESVKGRFTISRDDSKNTLYLQMNSLRAEDTAVYYCTPNWDEGFAYWGQGTLVTVSS
VL: DVVMTQSPLSLPVTLGQPASISCRSSQSLVHSNGNTYLHWYQQRPGQSPRLLINKVSNRFSGVPDRFSGSGSGTDFTLKISRVEAEDVGVYFCSQSTHVPRTFGGGTKVEIK
notes: Humanized 13C3; also called humanized 13C3 candidate 5
Kd [6]: 23.5 nM | EC50 [7]: 0.0155 µg/mL

B11: 13C3-HV-72-A/13C3 KV2-A (antibody, V domains shown)
VH: EVQLVESGGGLVQPGGSLRLSCAASGFTFSDAWMDWVRHAPGKGLEWVAELRSKAFNHATYYAESVKGRFTISRDDSKNSVYLQMNSLKTEDTAVYYCTPNWDEGFAYWGQGTLVTVSS
VL: DVVMTQSPLSLPVTLGQPASISCRSSQSLVHSNGNTYLHWYQQRPGQSPRLLINKVSNRFSGVPDRFSGSGSGTDFTLKISRVEAEDVGVYFCSQSTHVPRTFGGGTKVEIK
notes: Humanized 13C3; also called HV-72A/KV2A; humanized 13C3 candidate 2
Kd [6]: 3.1 nM | EC50 [7]: 0.0262 µg/mL

B12: 13C3-HV-72-B/13C3 KV2-A (antibody, V domains shown)
VH: EVQLVESGGGLVQPGGSLRLSCAASGFTFSDAWMDWVRQAPGKGLEWVGELRSKAFNHATYYAESVKGRFTISRDDSKNSLYLQMNSLKTEDTAVYYCTPNWDEGFAYWGQGTLVTVSS
VL: DVVMTQSPLSLPVTLGQPASISCRSSQSLVHSNGNTYLHWYQQRPGQSPRLLINKVSNRFSGVPDRFSGSGSGTDFTLKISRVEAEDVGVYFCSQSTHVPRTFGGGTKVEIK
notes: Humanized 13C3; also called humanized 13C3 candidate 4
Kd [6]: 8.2 nM | EC50 [7]: 0.0257 µg/mL

— patent US20250066498A1 (GO THERAPEUTICS, published 2025)
